Reference: patent US11739132B2, “Separation moieties and methods of use thereof” (Werewolf Therapeutics, Inc., priority 2019, dated 2023)
Blank lines part the entries; values can stand above or below the sequence they belong to. No end group written: not given here.

Legend:
[1] = test system: conditioned media from MC38, CT26, CT26 pLVX MMP9-5T4+dox and myofibroblast cell lines; experiment: FRET end-point screen of conditioned media; format: biochemical, mouse; conditions: for Ratio of tumor vs control activity, end-point screen: three tumor cell lines vs myofibroblast cell line, complete (+FBS) media, 10 μM substrate
Description: Proteolytic activity was screened in the conditioned media samples by fluorescent resonance energy transfer (FRET) assays with the substrates listed in Table 10.
(§1) Conditioned media and cell lysate samples were received from Charles River Laboratories for the murine colon cancer cell lines: MC38 (epithelial), CT26 (fibroblast), and CT26 transduced with a lentivirus for doxycyclin-inducible expression of MMP9 (CT26 pLVX MMP9-5T4+dox). An immortalized mouse intestinal myofibroblast cell line (ABM Good #T0565) was used as a control stromal cell line, grown under manufacturer recommended conditions. Conditioned media and cell lysate samples were also received for screening purposes from ABM Good for the immortalized mouse colonic epithelial cell line YAMC (ABM Good #T0567).
Conditioned media samples were prepared according to the standard protocol using logarithmic phase cells. Briefly, cells were grown for 16h in either serum-free media or in complete media containing 10% fetal bovine serum (FBS). After conditioned media collection, the adherent cells were washed then lysed on plate with non-denaturing lysis buffer to produce a lysed “cell pellet” to capture any activity that remained associated with the cells. All cell culture-derived conditioned media samples, cell lysates from Charles River Laboratories, and cell lysates derived internally were processed with identical methods, to allow comparison between samples.
The resulting conditioned media was buffer exchanged with PBS and concentrated to 10× the original titer as a stock solution.
FBS background controls were therefore used for baseline subtraction at each concentration of substrate throughout the FRET experiments.
(§2) In the end-point screening assays, a fixed titer of 10× concentrated sample and a substrate concentration of 10 μM was used. Values reported in the end-point experiments are initial velocity measurements, in relative fluorescence units (RFU) per second. End-point measurements are a starting point for a screen, but the rate of the reaction is non-linearly related to substrate concentration. Therefore, a more accurate representation of activity would be given by steady-state kinetic measurements covering a range of substrate concentrations. To compare activity across cell lines, the data were treated with a Michaelis-Menten model, and the concentration of equivalent enzyme units [E0] was solved.

[2] = test system: conditioned media from tumor, myofibroblast and YAMC cell lines; experiment: FRET steady-state kinetics of conditioned media (enzyme equivalents); format: biochemical, mouse; conditions: for Secreted activity in conditioned media, steady-state kinetics: tumor cell lines
Description: as §1, §2
Accordingly, initial velocity was measured as a function of substrate concentration, using a 2-fold dilution series from 250 to 1 μM. Data were fitted using non-linear least squares fitting with GraphPad Prism software v 8.0 to the Michaelis-Menten equation:
[formula] where kcat is the rate of product formation under steady-state conditions in units (s^−1), and KM is the Michaelis constant that gives the substrate concentration in molar units (M) at which half maximum velocity of the reaction is produced for a given enzyme, [E0] is the enzyme concentration, and [S] the substrate concentration in (M).
In the assays where purified recombinant enzyme is used, the Michaelis-Menten parameters are as classically defined above. For conditioned media samples, the effective titer of conditioned media per assay was adjusted to approximately a 2× concentrate of the original unprocessed media samples to assure that the detection range matched the signal produced. The enzyme component in the calculation is redefined as a mixture of possible proteases that contribute to the cumulative observed activity, each with intrinsic reactivity toward a substrate. In this case, it is more appropriate to consider kcat and KM as macroscopic constants that represent the overall efficiency of catalysis, and E0 is an enzyme equivalent, expressed in units of concentration. To solve the data fit, kcat/KM can be fixed at that of the recombinant enzyme and enzyme equivalents per cell culture volume can be output. The effective titer of enzyme equivalents in this case can be used to compare the activity produced by the different cell lines.
An immortalized mouse colonic epithelial cell line (YAMC) was used to test activity in the presence of additional control “normal” epithelial cells. YAMC's are given the calculated enzyme equivalents (nM) resulting from all of these steady state experiments, to allow for comparison of the amount of equivalent activity per sample. For example, the YAMC control epithelial cell line produced activity with the ADAM17_2 substrate equivalent to that of 0.52±0.03 nM of ADAM17 recombinant enzyme. This cell line compares directly to MC38, also of epithelial origin, which had activity equivalent to that of 0.32±0.03 nM of ADAM17 recombinant enzyme. […] This cell line required non-standard cell culture conditions, including growth with murine IFNγ, and at low temperature to maintain, and may not be fully representative of epithelial cell lines.

FAPα = biological target: T1, FAPα (Homo sapiens, UniProt Q12884); experiment: 30-mer tandem linker library MSP-MS, FAPα; format: biochemical
T1 construct: purchased R&D Systems (Bio-techne) 930-ADB-010
T1 sequence (Q12884 1-760): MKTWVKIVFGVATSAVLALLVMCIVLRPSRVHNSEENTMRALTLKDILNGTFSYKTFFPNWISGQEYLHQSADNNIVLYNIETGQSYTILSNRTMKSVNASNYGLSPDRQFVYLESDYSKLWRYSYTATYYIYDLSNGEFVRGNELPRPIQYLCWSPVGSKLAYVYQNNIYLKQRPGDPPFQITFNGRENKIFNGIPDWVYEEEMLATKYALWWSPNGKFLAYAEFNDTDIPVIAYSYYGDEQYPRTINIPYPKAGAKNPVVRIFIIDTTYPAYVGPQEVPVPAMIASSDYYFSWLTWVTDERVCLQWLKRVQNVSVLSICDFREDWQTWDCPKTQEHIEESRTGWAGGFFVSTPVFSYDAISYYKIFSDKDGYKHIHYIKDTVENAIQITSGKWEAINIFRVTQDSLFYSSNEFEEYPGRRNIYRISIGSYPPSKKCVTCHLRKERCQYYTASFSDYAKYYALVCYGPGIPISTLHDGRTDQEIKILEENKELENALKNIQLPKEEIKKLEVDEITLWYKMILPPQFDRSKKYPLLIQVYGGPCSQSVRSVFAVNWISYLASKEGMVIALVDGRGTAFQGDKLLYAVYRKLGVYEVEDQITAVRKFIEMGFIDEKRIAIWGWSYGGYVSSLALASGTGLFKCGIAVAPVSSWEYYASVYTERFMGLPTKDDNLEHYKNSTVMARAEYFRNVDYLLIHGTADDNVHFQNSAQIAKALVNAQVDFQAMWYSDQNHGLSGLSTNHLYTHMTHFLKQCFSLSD
Protocol: (§3) Protease specificity screening was performed using Multiplexed Substrate Profiling by Mass Spectrometry (MSP-MS), the method described in, e.g. O'Donoghue A. J. et al., Nat Methods., 2012; 9(11): 1095-1100. This method employs a physico-chemically diverse peptide library as substrates for proteases, and reactions are monitored over time with mass spectrometric detection of cleaved products. The resulting cleavages are assessed for specific cleavage in the enzyme-treated sample by comparison with results from a no-enzyme control incubation.
(§4) Enzymes were activated and assayed following the manufacturer's recommendations.
FAPα activity was tested with fluorescence detection using a generic Z-GP-AMC substrate. For FRET assays, the final enzyme concentration was 5 nM and the buffer was 50 mM TRIS HCl, 1 M NaCl, 1 mg/mL BSA, pH 7.5.
To analyze the catalytic efficiency of candidate tandem linker designs, a tailored library approach using MSP-MS was applied. For the tailored library, a set of nineteen synthetic peptides, 30 amino acids in length (30-mers), were designed to test whether sequence context affects the efficiency of cleavage. Peptides were assayed in a multiplex format together as a substrate library with individual recombinant enzymes, using MSP-MS. For quantitative comparisons, kinetic analysis was performed over a time course, and results are reported either as a catalytic efficiency kcat/KM for well-behaved first-order kinetics, or as observed rates as kobs for more complex kinetic behavior.
(§5) Catalytic efficiency (kcat/KM) estimations were used to rank the top cleaved substrates in the MSP-MS reaction. Peptides were quantified by mass spectrometric label-free quantitation from the MS1 precursor ion peak areas for each peptide. Enzyme progress curves were modeled from six-time point measurements in GraphPad Prism. Data were fitted using non-linear least squares fitting to the first order kinetics equation:
(§6) [formula] where Y=percent product formation or substrate consumption, and t=time. The observed rate is a function of the enzyme concentration [E0], and an observed catalytic efficiency (kcat/KM) in units M^−1s^−1

Hepsin = biological target: T2, Hepsin (Homo sapiens, UniProt P05981); experiment: 30-mer library counter-screening MSP-MS, Hepsin; format: biochemical; conditions: for Apparent catalytic efficiency, hepsin: order of magnitude
T2 construct: purchased R&D Systems (Bio-techne) 4776-SE
T2 sequence (P05981 163-417 limits assumed): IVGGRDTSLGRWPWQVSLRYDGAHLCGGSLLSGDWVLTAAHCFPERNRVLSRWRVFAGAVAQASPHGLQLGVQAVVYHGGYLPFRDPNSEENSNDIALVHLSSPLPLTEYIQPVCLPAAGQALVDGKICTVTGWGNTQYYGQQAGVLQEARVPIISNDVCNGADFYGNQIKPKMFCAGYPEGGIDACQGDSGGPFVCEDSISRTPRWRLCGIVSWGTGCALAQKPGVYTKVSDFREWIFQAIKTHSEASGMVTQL
T2 sequence (P05981 1-162 partner limits assumed): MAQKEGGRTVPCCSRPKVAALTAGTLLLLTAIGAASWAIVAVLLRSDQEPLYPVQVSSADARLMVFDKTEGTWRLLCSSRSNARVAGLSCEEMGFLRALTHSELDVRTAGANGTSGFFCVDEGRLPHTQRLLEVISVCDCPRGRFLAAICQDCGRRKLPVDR
Protocol: as §3, §4
Hepsin was pre-activated overnight at 37° C. in the manufacturer recommended buffer: 100 mM TRIS, 10 mM CaCl2, 150 mM NaCl, 0.05% Brij-35, pH 8.0. Activity was measured with 2.4 or 24 nM enzyme in the buffer: 50 mM TRIS HCl at pH 7.4.
(§7) Counter-screening was performed against the enzymes Thrombin, Factor Xa and Hepsin using this library as well, and for calibration of activity, a positive-control peptide bearing favorable motifs for these enzymes was also designed (ALU30-19).
as §5, §6
(§8) Counter-screening with Thrombin, Factor Xa and Hepsin was also performed following the same analysis. The library peptide Alu30-19 was designed to include authentic sites for each enzyme, for comparison of overall cleavage efficiency as well as cleavage site specificity within each motif. The substrate designed for Factor Xa has the motif FNPR|TFGS (SEQ ID NO: 248), derived from the Factor Xa cleavage site in Thrombin. The substrate motif for Thrombin was FPR|, a common tool substrate motif. The substrate motif for hepsin was RKRR|GSRG (SEQ ID NO: 249) from filaggrin.

Thrombin = biological target: T3, Thrombin (Homo sapiens, UniProt P00734); experiment: 30-mer library counter-screening MSP-MS, Thrombin; format: biochemical
T3 construct: purchased R&D Systems (Bio-techne) 2196-SE-200
Protocol: as §3, §4
Thrombin was activated following the manufacturer's recommended conditions by pre-incubation with the enzyme with thermolysin for 15 min, and then the thermolysin was quenched with 1,10 phenanthroline treatment. Activated thrombin was assayed at 1.2 nM in activation buffer: 50 mM TRIS HCl, 10 mM CaCl2, 150 mM NaCl, 0.05% (w/v) Brij-35, pH 7.5.
as §7, §5, §6, §8

Sequence: LAQKLKSS (also: Mca fluorophore and Dnp quencher, places not given here) [ADAM17_2, FRET substrate with Mca fluorophore and Dnp quencher]
- Ratio of tumor vs control activity, end-point screen [1]: approximately 3 fold
- Calculated enzyme equivalents (ADAM17 recombinant enzyme) ([2]; MC38): 0.32 ± 0.03 nM
- Calculated enzyme equivalents (ADAM17 recombinant enzyme) ([2]; YAMC control epithelial cell line): 0.52 ± 0.03 nM
- Secreted activity in myofibroblast conditioned media, steady-state kinetics [2]: essentially undetectable

Sequence: GPAGMKGL (also: Mca fluorophore and Dnp quencher, places not given here) [MMP9_1, FRET substrate with Mca fluorophore and Dnp quencher]
- Substrate cleavage activity in the end-point screen ([1]; conditioned media): high activity
- Ratio of tumor vs control activity, end-point screen [1]: approximately 4 fold
- Secreted activity in conditioned media, steady-state kinetics [2]: Secreted activity was measured

- Relative efficiency of 30-mer peptide degradation by FAPα (FAPα): not cleaved
Sequence: RGPLAQKLKSSALFKSSFPGGPAGIGGGGK [Alu30-7]

- Apparent catalytic efficiency, hepsin (Hepsin): ~10^5 M^−1s^−1
Sequence: RGPGGPAGIGPLAQKLKSSALFKSSFPGGG [Alu30-9]

- Apparent catalytic efficiency, hepsin (Hepsin): ~10^5 M^−1s^−1
- Relative efficiency of 30-mer peptide degradation by FAPα (FAPα): not cleaved
Sequence: GGGALFKSSFPLAQKLKSSPGGPAGIGGGR [Alu30-8]

- Relative efficiency of 30-mer peptide cleavage by thrombin (Thrombin): lower cleavage activity
Sequence: KSGPGGPAGIGALFFSSPPLAQKLKSSGGR [Alu30-18]

- Relative efficiency of 30-mer peptide degradation by FAPα (FAPα): highest cleavage activity
- Relative efficiency of 30-mer peptide cleavage by thrombin (Thrombin): most rapidly cleaved in the library
Sequence: KGGGPAGLYAQGPAGLYAQGPAGLYAQGSR [Alu30-3]

- Cleavage of motif by FAPα (FAPα; at PGGP|AGIG and GP|AGLYAQ respectively): able to cleave
Sequence: GPAGLYAQ (also: Mca fluorophore and Dnp quencher, places not given here) [MMP14_1, FRET substrate with Mca fluorophore and Dnp quencher]
- Substrate cleavage activity in the end-point screen ([1]; conditioned media): high activity
- Substrate cleavage activity, control myofibroblast cell line ([1]; end-point screen, conditioned media): lowest activity
- Ratio of tumor vs control activity, end-point screen [1]: approximately 57 fold
- Secreted activity in myofibroblast conditioned media, steady-state kinetics [2]: not in the myofibroblast cell line
- Secreted activity in conditioned media, steady-state kinetics [2]: significant measurable activity

- Relative efficiency of 30-mer peptide degradation by FAPα (FAPα): highest cleavage activity
- Relative efficiency of 30-mer peptide cleavage by thrombin (Thrombin): efficient substrate
Sequence: RGGPAGLYAQGGPAGLYAQGGGPAGLYAQK [Alu30-4]

- Relative efficiency of 30-mer peptide cleavage by thrombin (Thrombin): most rapidly cleaved in the library
Sequence: GALFKSSFPSGGGPAGLYAQGGSGKGGSGK [Alu30-1]

- Apparent catalytic efficiency, hepsin (Hepsin): ~10^5 M^−1s^−1
- Relative efficiency of 30-mer peptide cleavage by thrombin (Thrombin): cleaved at lower efficiency
Sequence: GGPLAQKLKSSALFKSSFPGPAGLYAQGGR [Alu30-12]

- Relative efficiency of cleavage by hepsin (Hepsin): less efficiently cleaved than ADAM17_ 2
Sequence: LAQRLRSS (also: Mca fluorophore and Dnp quencher, places not given here) [ADAM17_1, FRET substrate with Mca fluorophore and Dnp quencher]

- Apparent catalytic efficiency, hepsin (Hepsin): ~10^5 M^−1s^−1
Sequence: RGGALFKSSFPLAQKLKSSGPAGLYAQGGK [Alu30-14]

- Relative efficiency of 30-mer peptide cleavage by thrombin (Thrombin): cleaved at lower efficiency
Sequence: GGALFKSSFPGPAGLYAQPLAQKLKSSGGK [Alu30-13]
